Results taken from US20060228349A1 (published 2006).
Residue numbers refer to the chain shown, from its start.

Assays:
[1] = biological target: T1, Biotinylated ADDL preparations (bADDLs) (N-terminal biotin); experiment: BIACORE, bADDL as antigen; column IgG1#2
T1 construct: Oligomer, number of copies not fixed; also called biotinylated ADDL antigen; high molecular weight 10% bADDL

[2] = biological target: T2, biotin-Aβ1-20 (biotin (position not given)); experiment: BIACORE, biotin-Aβ1-20 as antigen; column IgG1#1
T2 peptide: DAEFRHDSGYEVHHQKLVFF

[3] = biological target: T2, biotin-Aβ1-20; experiment: BIACORE, biotin-Aβ1-20 as antigen; column IgG1#2
[4] = biological target: T1, Biotinylated ADDL preparations (bADDLs); experiment: BIACORE, bADDL as antigen; column IgG1#1
[5] = biological target: T2, biotin-Aβ1-20; experiment: BIACORE, biotin-Aβ1-20 as antigen; column Fab
[6] = biological target: T1, Biotinylated ADDL preparations (bADDLs); experiment: BIACORE, bADDL as antigen; column Fab (row shifted one column to the left)
[7] = biological target: T3, ADDL fibril preparation (Aβ1-42 fibrils); experiment: solution equilibrium titration, free IgG by ELISA, GraFit; SE 5.78
T3 construct: Fibrillar assembly; number of copies not fixed

[8] = biological target: T4, Aβ-derived diffusible ligands (synthetic ADDLs), soluble oligomers of amyloid β1-42; experiment: solution equilibrium titration, free IgG by ELISA, GraFit; SE 1.63
T4 construct: Oligomeric preparation of synthetic Aβ1-42 in DMSO/F12 (monomer, trimer, tetramer, 12-24mer on SDS-PAGE); number of copies not fixed; also called soluble Aβ oligomers

[9] = biological target: T5, Aβ1-20 peptide; experiment: solution equilibrium titration, free IgG by ELISA, GraFit; SE 4.39
T5 peptide: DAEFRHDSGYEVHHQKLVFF

[10] = biological target: T6, amyloid beta (1-40) peptide; experiment: solution equilibrium titration, free IgG by ELISA, GraFit; SE 6.21
T6 construct: Used as monomer-like control; also called Aβ1-40; monomer preparation

[11] = biological target: T5, Aβ1-20 peptide; experiment: peptide ELISA
[12] = biological target: T6, amyloid beta (1-40) peptide; experiment: solution equilibrium titration, free IgG by ELISA, GraFit; SE 21.86
[13] = biological target: T3, ADDL fibril preparation (Aβ1-42 fibrils); experiment: solution equilibrium titration, free IgG by ELISA, GraFit; SE 0.59
[14] = biological target: T4, Aβ-derived diffusible ligands …; experiment: solution equilibrium titration, free IgG by ELISA, GraFit; SE 0.74
[15] = biological target: T4, Aβ-derived diffusible ligands …; experiment: solution equilibrium titration, free IgG by ELISA, GraFit; SE 0.25
[16] = biological target: T7, SEC Peak 2 fraction of ADDLs (small aggregates, <30 kDa); experiment: sandwich ELISA on SEC peaks (FIG. 3)
T7 construct: Mostly monomer with small amounts of trimer and tetramer, no 12-24mer

[17] = biological target: T8, SEC Peak 1 fraction of ADDLs (large aggregates, >50 kDa); experiment: sandwich ELISA on SEC peaks (FIG. 3)
T8 construct: Monomer, trimer, tetramer and 12-24mer on SDS-PAGE

[18] = biological target: T6, amyloid beta (1-40) peptide; experiment: solution equilibrium titration, free IgG by ELISA, GraFit; SE 2.64
[19] = biological target: T3, ADDL fibril preparation (Aβ1-42 fibrils); experiment: solution equilibrium titration, free IgG by ELISA, GraFit; SE 0.99
[20] = biological target: T6, amyloid beta (1-40) peptide; experiment: solution equilibrium titration, free IgG by ELISA, GraFit; SE 4.14
[21] = biological target: T3, ADDL fibril preparation (Aβ1-42 fibrils); experiment: solution equilibrium titration, free IgG by ELISA, GraFit; SE 3.69
[22] = biological target: T4, Aβ-derived diffusible ligands …; experiment: solution equilibrium titration, free IgG by ELISA, GraFit; SE 1.03
[23] = biological target: T5, Aβ1-20 peptide; experiment: solution equilibrium titration, free IgG by ELISA, GraFit; SE 7.07
[24] = biological target: T3, ADDL fibril preparation (Aβ1-42 fibrils); experiment: solution equilibrium titration, free IgG by ELISA, GraFit; SE 2.40
[25] = biological target: T4, Aβ-derived diffusible ligands …; experiment: solution equilibrium titration, free IgG by ELISA, GraFit; SE 0.52
[26] = biological target: T6, amyloid beta (1-40) peptide; experiment: solution equilibrium titration, free IgG by ELISA, GraFit; SE 5.84
[27] = biological target: T6, amyloid beta (1-40) peptide; experiment: solution equilibrium titration, free IgG by ELISA, GraFit; SE 2.07
[28] = biological target: T3, ADDL fibril preparation (Aβ1-42 fibrils); experiment: solution equilibrium titration, free IgG by ELISA, GraFit; SE 1.60
[29] = biological target: T4, Aβ-derived diffusible ligands …; experiment: solution equilibrium titration, free IgG by ELISA, GraFit; SE 0.42
[30] = biological target: T4, Aβ-derived diffusible ligands …; experiment: immunofluorescence of ADDLs bound to primary hippocampal neurons

B1: 20C2-2A, affinity matured humanized 20C2, IgG1 humanized A version (antibody, V domains shown)
VH: QVTLKESGPALVKPTQTLTLTCTFSGFSLSTSGMGVGWIRQPPGKALEWLAHIWWDDDKSYNPSLKSRLTISKDTSKNQVVLTMTNMDPVDTATYYCARRQLGLRSIDAMDYWGQGTTVTVSS
VL: DVVMTQSPLSLPVTPGEPASISCRSSQSILHSNGNTYLEWYLQKPGQSPQLLIYKVSNRFSGVPDRFSGSGSGTDFTLKISRVEAEDVGVYYCFQATRVPLTFGQGTKLEIKR
notes: also called SJ-p1-18
Kd [1]: 0.0003 nM | Kd [2]: 0.686 nM | Kd [3]: 2 nM | Kd [4]: 0.015 nM

B2: 20C2-6A, affinity matured humanized 20C2, IgG1 humanized A version (antibody, V domains shown)
VH: B1 VH
VL: B1 VL with A96S, T97S
notes: also called 4P1-22
Kd [1]: 0.024 nM | Kd [2]: 0.544 nM | Kd [3]: 0.714 nM | Kd [4]: 0.0043 nM

B3: 20C2-23A, affinity matured humanized 20C2, IgG1 humanized A version (antibody, V domains shown)
VH: B1 VH
VL: B1 VL with F94H, A96S, T97S, R98K
notes: also called 4P1-40
Kd [1]: 0.066 nM | Kd [2]: 0.649 nM | Kd [3]: 1.5 nM | Kd [4]: 0.085 nM

B4: 20C2-8B, affinity matured humanized 20C2, IgG1 humanized B version (antibody, V domains shown)
VH: B1 VH with F24L
VL: B1 VL with F94L, A96T
notes: also called SJ-p2-39
Kd [1]: 0.0008 nM | Kd [2]: 0.046 nM | Kd [3]: 0.064 nM | Kd [4]: 0.013 nM

B5: 20C2-5A, affinity matured humanized 20C2, IgG1 humanized A version (antibody, V domains shown)
VH: B1 VH
VL: B1 VL with A96S, T97S, R98F
notes: also called SJ-p2-1F
Kd [1]: 0.068 nM | Kd [2]: 0.912 nM | Kd [3]: 1.5 nM | Kd [4]: 0.317 nM

B6: 20C2-8A, affinity matured humanized 20C2, IgG1 humanized A version (antibody, V domains shown)
VH: B1 VH
VL: B1 VL with F94L, A96T
notes: also called SJ-p2-39
Kd [1]: 0.0007 nM | Kd [2]: 0.14 nM | Kd [3]: 0.376 nM | Kd [4]: 0.003 nM

B7: 20C2-9A, affinity matured humanized 20C2, IgG1 humanized A version (antibody, V domains shown)
VH: B1 VH
VL: B1 VL with F94V, A96T, T97S, R98L
notes: also called SJ-p2-51
Kd [1]: 0.002 nM | Kd [2]: 0.241 nM | Kd [3]: 0.42 nM

B8: Fab of mouse 20C2 (Fab, V domains shown)
VH: QVTLKESGPGILKPSQTLSLTCSLSGFSLSTSGMGVGWFRQPSGKGLEWLAHIWWDDDKSYNPSLKSRLTISKYTSRNQVFLTITSVDTADTATYYCARRQLGLRSIDAMDYWGQGTSVTVSS
VL: DVLMTQTPLSLPVSLGDQASISCRSSQSILHSNGNTYLEWYLQKPGQSPKLLIYKVSNRFSGVPDRFSGSGSGTDFTLKISRVEAEDLGVYYCFQGSLVPLTFGAGTKLELK
notes: also called Mouse-20C2 (Fab column)
Kd [5]: 83 nM | Kd [6]: 62 nM

B9: murine anti-ADDL monoclonal antibody 5F10 (antibody, V domains shown)
VH: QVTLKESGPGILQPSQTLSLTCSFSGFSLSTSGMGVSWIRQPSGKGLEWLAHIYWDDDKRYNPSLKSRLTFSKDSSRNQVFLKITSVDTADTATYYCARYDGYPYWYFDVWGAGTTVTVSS
VL: B8 VL with D1V, I29L, L30V, E39H, Y92F, G96S, S97T, L98H
notes: also called SF10
Kd [7]: 28.9 nM | Kd [8]: 11.9 nM | Kd [9]: 6.1 nM | Kd [10]: 23.5 nM

B10: murine anti-ADDL monoclonal antibody 1F6 (antibody, mouse IgG1, V domains shown)
VH: DVQLVESGGGLVQPGGSRKLSCAASGFTFSSFGMHWVRQAPEKGLEWVAYISSVSSTIYYADTVKGRFTISRDNPKNTLFLQMTSLRSEDTAMYYCARSGYGSSYGYGMDYWGQGTLVTVSS
VL: B8 VL with L30V, L98H
binding result [11]: binds

B11: murine anti-ADDL monoclonal antibody 3B3 (antibody, mouse IgG1, V domains shown)
VH: DVQLVESGGGLVQPGGSRKLSCAASGFTFSSFGMHWVRQAPEKGLEWVAYISRGSSTIYYADTVKGRFTISRDNPKNTLFLQMTSLRSEDTAMYYCARGITTALDYWGQGTSVTVSS
VL: B8 VL with L30V, V56A, L98H, L101P, A105G, L111I
Kd [12]: 105 nM | Kd [13]: 7.21 nM | Kd [14]: 10 nM | binding result [11]: binds

B12: murine anti-ADDL monoclonal antibody 2A10 (antibody, mouse IgG1, V domains shown)
VH: QVTLKESGPGILKPSQTLSLTCSFSGFSLSTSGMGVGWIRQPSGKGLEWLAHIWWDDDKYYNPSLKSQLTISKDTSRNQVFLKITSVDTADTATYYCARRSISTLVPEDYFDYWGQGTTLTVSS
VL: B8 VL with L30V, L98H
Kd [15]: 2.29 nM | binding result [16]: binds | binding result [17]: binds | Kd [18]: 14.7 nM | Kd [19]: 6.72 nM

B13: murine anti-ADDL monoclonal antibody 4C2 (antibody, mouse IgG1, V domains shown)
VH: B12 VH with S103T, L105V, D112A
VL: B8 VL with T7S, L30V, L98H
Kd [20]: 21.9 nM | binding result [16]: binds | binding result [17]: binds | Kd [21]: 19.2 nM | Kd [22]: 8.08 nM

B14: murine anti-ADDL monoclonal antibody 2D6 (antibody, mouse IgG1, V domains shown)
VH: B12 VH with L105V, V106I, T119I
VL: B8 VL with P12T, L30V, L98H
Kd [23]: 30.2 nM | Kd [24]: 14.4 nM | Kd [25]: 5.05 nM | Kd [26]: 25.7 nM

B15: murine anti-ADDL monoclonal antibody 4E2 (antibody, mouse IgG1, V domains shown)
VH: B12 VH with S103N, T104S, L105V, S124L
VL: B8 VL with L30V, L98H
Kd [27]: 20.2 nM | binding result [16]: binds | binding result [17]: binds | Kd [28]: 9.4 nM | Kd [29]: 4.26 nM

B16: murine anti-ADDL monoclonal antibody 2H4 (antibody, mouse IgG2a, V domains shown)
VH: DVQLVESGGGLVQPGGSRKLSCAASGFTFSSFGMHWVRQAPEKGLEWVAYIRSGSSTIYYADTVKGRFTISRDNPKNTLFLQMTSLRSEDTAMYYCTRGGNYYGSSRFAYWGQGTLVTVSA
VL: DIKMTQSPSSMYASLGERVTITCKASQDINSYLSWFQQKPGKSPKTLIYRANRFVDGVPSRFSGSGSGQDYSLTISSLEYEDMGIYFCLQYDEFPLTFGAGTKLVLK
binding result [30]: binds
